According to article PMC6016249:

Biological target: α1-subunit of steroid C-25 dehydrogenase 1 (S25DH1), recombinant from Thauera aromatica K172 (Sterolibacterium denitrificans)
Assay: co-purification (ion exchange and dye-affinity chromatography, SDS-PAGE); nontagged subunits coproduced in T. aromatica K172; soluble extract, anaerobic DEAE-Sepharose then Reactive Red 120, active fractions followed; SDS-PAGE, bands of S25DH1 identified by ESI-QTOF-MS of tryptic digests

Sequence of α1-subunit of steroid C-25 dehydrogenase 1 (S25DH1), recombinant from Thauera aromatica K172 (Sterolibacterium denitrificans) (main, as listed by the source): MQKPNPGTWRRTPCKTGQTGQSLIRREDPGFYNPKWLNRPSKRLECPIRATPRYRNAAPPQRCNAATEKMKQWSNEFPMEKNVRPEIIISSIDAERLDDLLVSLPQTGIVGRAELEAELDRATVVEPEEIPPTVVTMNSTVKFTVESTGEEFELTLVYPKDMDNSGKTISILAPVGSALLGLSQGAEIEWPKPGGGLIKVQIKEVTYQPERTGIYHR

Row | Substance | stoichiometry N
1 | β3-subunit of steroid C-25 dehydrogenase, recombinant from Thauera aromatica K172 (natural protein) | 1 β3 per α1
2 | γ3-subunit of steroid C-25 dehydrogenase, recombinant from Thauera aromatica K172 (natural protein) | 1 γ3 per α1
